Key:
TNBC PDX tumors = test: TNBC PDX models, single agent or combination with olaparib; type: in vivo, athymic nude mice; settings: CTG-0437, CTG-1017, and CTG-2055; single agent olaparib 50 mg/kg p.o. qd×28
Excerpt: The activity of Conjugate 46 as a single agent or in combination with the PARP inhibitor olaparib was additionally assessed in TNBC PDX models. Briefly, PDX tumors, spanning varying levels of ROR1 expression and sensitivity to olaparib, were passaged in athymic nude Fox1^nu mice before being processed into tumor fragments for subcutaneous implantation into the hind flank of mice for study initiation. When tumors reached a volume of around 150-300 mm^3, the mice were randomized and enrolled into the study. Tumor-bearing mice were administered up to three weekly doses (qw×3) of Conjugate 46 i.v. at 5 mg/kg and up to twenty-eight daily doses (qd×28) of olaparib p.o. at 50 mg/kg.
Combination treatment with Conjugate 46 and olaparib (50 mg/kg, qd×28) is conducted using a 2 mg/kg, qw×3 dosing regimen for Conjugate 46. The combination therapy is assessed in six TNBC PDX models as described in Example 26.

[1] = system: Immunoglobulin (Ig), Frizzled (Fz), and Kringle (Kr) domains of ROR1; test: Epitope binning ELISA on ROR1 domains; type: binding; settings: Table 6
Excerpt: Antibody binding was detected via HRP-conjugated anti-human Fc antibodies (Jackson Immunoresearch) and detection with SuperSignal ELISA Pico Chemiluminescent Substrate (Pierce).

[2] = Differential scanning fluorimetry (protein thermal shift; TM1/TM2); type: physicochemical; settings: Table 11; melting temperature of the Fab domain
Method in brief: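 Protein at 0.2-2 mg/mL was mixed 1:1 with SYPRO Orange in PBS and heated to 95° C. at ~1.5° C. per minute while fluorescence was monitored, in quadruplicate. TM1 is Fc (CH2) unfolding and TM2 is Fab unfolding.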

human ROR1-Fz = target: T1, human ROR1-Fz (Homo sapiens, UniProt Q01973); test: Biacore off-rate and kinetic analysis, ROR1-Fz; type: binding; settings: Table 11; SP34 light chain
T1 construct: Frizzled (Fz, residues 165-305); His6 (C); purchased Acro Biosystems; host or cells: HEK293
Method in brief: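 Anti-ROR1 antibodies captured on anti-human Fc surface; recombinant hROR1 ECD or ROR1-Fz analyte flowed at 100, 50, 25, 6.25, 1.5625 nM plus 0 nM, 180 s association, 600 s dissociation, 25° C., HBS-EP+ buffer. KD from ratio of rate constants, 1:1 Langmuir fit.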

[3] = target: T2, HCT116 cells overexpressing human ROR1 (HCT116-hRor1) (Homo sapiens, UniProt Q01973); test: FACS cell binding on HCT116-hROR1; settings: Table 11, SP34 light chain
T2 construct: expressed in transfected cells; host or cells: HCT116 (clone HCT116-hRor1-D02)
Excerpt: Ntera-2, MDA-MB-231, MCF7, HCT116 and Mino cells were obtained from ATCC. HCT116-hRor1-D02 clone was generated by transfecting HCT116 cells with a plasmid containing human Ror1 cDNA sequence and selected for highest stable expression of hRor1 on the cell surface. MDA-MB-231, MCF7, HCT116 and HCT116-Ror1 cell were maintained in Ham's F-12 high glucose DMEM (50-50) (Cellgro-Mediatech; Manassas, VA) supplemented with 10% heat-inactivated fetal bovine serum (Hyclone; Thermo Scientific; Waltham, MA), 1% Penicillin/Streptomycin (Cellgro-Mediatech; Manassas, VA) and 2 mmol/L-glutamax (Life Technology; Carlsbad, CA). Mino cells were maintained in RPMI-1640 medium (Cellgro-Mediatech; Manassas, VA) supplemented with 20% heat-inactivated fetal bovine serum (Hyclone; Thermo Scientific; Waltham, MA), 1% Penicillin/Streptomycin (Cellgro-Mediatech; Manassas, VA) and 2 mmol/L-glutamax (Life Technology; Carlsbad, CA).
Variants with expression levels>250 nM were tested in a fluorescence-activated cell sorting (FACS) cell-binding assay. […]
A mix of ROR1 positive and negative cells was prepared as follows. […] Cells were then washed 2× with FACS buffer and fixed for 10 minutes in 200 μl PBS with 2% PFA prior to fluorescence detection. […] Mean Fluorescence Intensity of ROR1 antibody binding was analyzed using FlowJo® software (Tree Star, Inc.).

O=C(c1cc(Cc2n[nH]c(=O)c3ccccc23)ccc1F)N1CCN(C(=O)C2CC2)CC1 [olaparib]
tumor growth suppression (TNBC PDX tumors): moderate tumor growth suppression

B1: SRP2196 (antibody, V domains shown)
VH: EVQLVESGGGLVQPGGSLRLSCAASGFNITGYYIHWVRQAPGKGLEWVGYISPNSGSTYYADSVKGRFTISADTSKNTAYLQMNSLRAEDTAVYYCARDSRRYVRPFDYWGQGTLVTVSS
VL: QAVVTQESALTTSPGETVTLTCRSSTGAVTTSNYANWVQEKPDHLFTGLIGGTNKRAPGVPARFSGSLIGDKAALTITGAQTEDEAIYFCALWYSNLWVFGGGTKLTVL
modifications: Synthetic: 1944-A07; VH; Synthetic: SP34 ; VL
Domain binding by ELISA [1]: Fz

B2: SRP2196-B07 (antibody, V domains shown)
VH: EVQLVESGGGLVQPGGSLRLSCAASGFNITGYHIHWVRQAPGEGLEWVGYISPNSGATYYADSVEGRFTISADTSKNTAYLQMHSLRAEDTAVYYCTRDSRRYVRGWDYWGQGTLVTVSS
VL: QAVVTQESALTTSPGETVTLTCRSSTGAVTTSNYANWVQEKPDHLFTGLIGGTNKRAPGVPARFSGSLIGDKAALTITGAQTEDEAIYFCALWYSNLWVFGGGTKLTVL
TM2 (° C.) [2]: 69 °C
Biacore human ROR1-Fz ka (human ROR1-Fz): 185000 M⁻¹ s⁻¹
Biacore human ROR1-Fz kd (human ROR1-Fz): 0.000269 s⁻¹
Kd (human ROR1-Fz): 1.45 nM
HCT 116-hROR1 Binding Bmax (MFI) [3]: 15139 MFI
Kd ([3]; read-out: HCT 116-hROR1 Binding Kd): 0.3 nM
